Experimental data as given in patent publication US20210388102A1 (IMMUNOGEN, published 2021).
Where a chain is given by its changes, count along the chain named. Names may count otherwise. Each block holds one binder with its values, some of them ahead of it.

Tests used:
[1] = molecular target: T1, human ADAM9 (huADAM9) on cells (human, UniProt Q13443 206-819); experiment: FACS, 300-19 cells expressing human ADAM9
T1 construct: The pro-domain is said to be cleaved (Arg-205/Ala-206) in the mature protein; also called Cho-K/huADAM9; Cho-K/hu ADAM9.2
T1 sequence: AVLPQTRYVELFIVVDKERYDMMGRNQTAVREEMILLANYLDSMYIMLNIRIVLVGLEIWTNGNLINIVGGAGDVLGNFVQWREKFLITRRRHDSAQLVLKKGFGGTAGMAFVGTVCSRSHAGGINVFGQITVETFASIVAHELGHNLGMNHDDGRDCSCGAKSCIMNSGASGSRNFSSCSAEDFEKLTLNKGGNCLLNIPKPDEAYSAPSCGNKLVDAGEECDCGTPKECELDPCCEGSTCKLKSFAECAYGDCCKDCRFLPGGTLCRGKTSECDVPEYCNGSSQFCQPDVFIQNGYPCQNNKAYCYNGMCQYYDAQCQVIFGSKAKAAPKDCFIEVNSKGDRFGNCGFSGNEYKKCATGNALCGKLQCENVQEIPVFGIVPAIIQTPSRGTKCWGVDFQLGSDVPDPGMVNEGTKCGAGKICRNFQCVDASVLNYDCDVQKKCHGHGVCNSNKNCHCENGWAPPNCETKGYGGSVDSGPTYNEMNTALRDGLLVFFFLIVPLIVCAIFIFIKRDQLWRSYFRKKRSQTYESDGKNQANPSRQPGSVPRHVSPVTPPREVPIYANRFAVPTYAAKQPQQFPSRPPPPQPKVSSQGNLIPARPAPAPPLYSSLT

[2] = molecular target: T2, cynomolgus monkey ADAM9 (cynoADAM9) on cells (cynomolgus monkey, UniProt Q13443 206-819 (human entry)); experiment: FACS, 300-19 cells expressing cynomolgus ADAM9
T2 construct: also called Cho-K/cynoADAM9 clone 2; Cho-K/cynoADAM9 clone #16
T2 chain: T1 sequence with V69A, Q130H, G421D, V441I, S521R, G546V, A569P

[3] = molecular target: T3, His-tagged soluble human ADAM9 (shADAM9-His) (human, UniProt Q13443 206-697); experiment: SPR (BIACORE), antibody captured, huADAM9-His in flow
T3 construct: Contains an extracellular portion of human ADAM9; also called huADAM9-His; His peptide-tagged soluble huADAM9
T3 sequence: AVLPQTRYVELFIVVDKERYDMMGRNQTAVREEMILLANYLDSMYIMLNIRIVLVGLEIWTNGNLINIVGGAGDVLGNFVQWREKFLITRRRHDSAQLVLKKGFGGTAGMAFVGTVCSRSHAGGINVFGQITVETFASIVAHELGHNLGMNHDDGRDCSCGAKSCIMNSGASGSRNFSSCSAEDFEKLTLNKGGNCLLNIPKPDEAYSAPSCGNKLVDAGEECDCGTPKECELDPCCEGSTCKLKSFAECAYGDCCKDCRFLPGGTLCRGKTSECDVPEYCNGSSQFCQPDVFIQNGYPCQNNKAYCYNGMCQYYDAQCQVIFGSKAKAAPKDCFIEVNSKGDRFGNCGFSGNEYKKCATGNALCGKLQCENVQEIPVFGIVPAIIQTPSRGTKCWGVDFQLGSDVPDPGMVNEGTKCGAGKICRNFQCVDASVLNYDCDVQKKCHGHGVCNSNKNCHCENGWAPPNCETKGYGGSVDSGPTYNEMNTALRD

[4] = molecular target: T2, cynomolgus monkey ADAM9 (cynoADAM9) on …; experiment: FACS, EC50 on 300-19 cynoADAM9 cells over EC50 on 300-19 huADAM9 cells
huFcRn [5] = molecular target: T4, huFcRn (human, UniProt P55899 24-297; P61769 21-119, limits assumed); experiment: SPR at pH 6.0: 250 nM and 1000 nM huFcRn passed over captured antibody
T4 construct: source and construct are not described; also called human FcRn

[6] = molecular target: T3, His-tagged soluble human ADAM9 …; experiment: ELISA: His-tagged soluble huADAM9 (0.5 µg/mL) captured by plate-coated anti-His antibody; serial dilutions of antibody about 0.2-500 ng/mL; abs @450nm
cyno FcRn = molecular target: T5, cyno FcRn (cynomolgus monkey, UniProt Q8SPV9 24-297; Q8SPW0 21-119, limits assumed); experiment: FcRn binding, method not described
T5 construct: source and construct are not described

huFcRn [7] = molecular target: T4, huFcRn; experiment: SPR at pH 6.0: 25 nM and 100 nM antibody passed over immobilized FcRn (species of the FcRn not named in the legend); bivalent analyte
[8] = molecular target: T3, His-tagged soluble human ADAM9 …; experiment: SPR (BIACORE), antibody captured on anti-human Fc, shADAM9-His 6.25-100 nM, 1:1 Langmuir
[9] = molecular target: T2, cynomolgus monkey ADAM9 (cynoADAM9) on …; experiment: FACS, 300-19 cells expressing cynomolgus ADAM9; FACS, 300-19 cells expressing cynoADAM9, dilution series, 4° C.
[10] = molecular target: T2, cynomolgus monkey ADAM9 (cynoADAM9) on …; experiment: FACS, EC50 on 300-19 cynoADAM9 cells over EC50 on 300-19 huADAM9 cells; Unitless ratio of cyno EC50 to human EC50 by FACS on 300-19 cells

T5 sequence (Q8SPV9 24-297 limits assumed, chain 1 of 2): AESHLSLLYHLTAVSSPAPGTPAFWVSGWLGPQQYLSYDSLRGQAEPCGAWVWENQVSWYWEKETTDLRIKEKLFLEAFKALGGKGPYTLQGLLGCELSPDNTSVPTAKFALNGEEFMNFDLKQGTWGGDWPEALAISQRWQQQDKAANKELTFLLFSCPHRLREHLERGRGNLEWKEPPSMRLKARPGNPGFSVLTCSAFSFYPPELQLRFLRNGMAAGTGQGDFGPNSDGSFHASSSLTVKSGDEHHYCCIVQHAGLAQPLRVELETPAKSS
T5 sequence (Q8SPW0 21-119 limits assumed, chain 2 of 2): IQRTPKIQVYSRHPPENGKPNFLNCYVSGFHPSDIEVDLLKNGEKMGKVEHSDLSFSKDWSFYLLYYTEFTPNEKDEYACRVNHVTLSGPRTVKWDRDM

EC50 [1]: 1.33 nM | EC50 [2]: 3.8 nM | cyno/human (ratio of EC50) [4]: 3 | EC50 (read off the curve) [6]: ~9 ng/mL
B3: hMAB-A(2I.2)-S442C (antibody)
heavy: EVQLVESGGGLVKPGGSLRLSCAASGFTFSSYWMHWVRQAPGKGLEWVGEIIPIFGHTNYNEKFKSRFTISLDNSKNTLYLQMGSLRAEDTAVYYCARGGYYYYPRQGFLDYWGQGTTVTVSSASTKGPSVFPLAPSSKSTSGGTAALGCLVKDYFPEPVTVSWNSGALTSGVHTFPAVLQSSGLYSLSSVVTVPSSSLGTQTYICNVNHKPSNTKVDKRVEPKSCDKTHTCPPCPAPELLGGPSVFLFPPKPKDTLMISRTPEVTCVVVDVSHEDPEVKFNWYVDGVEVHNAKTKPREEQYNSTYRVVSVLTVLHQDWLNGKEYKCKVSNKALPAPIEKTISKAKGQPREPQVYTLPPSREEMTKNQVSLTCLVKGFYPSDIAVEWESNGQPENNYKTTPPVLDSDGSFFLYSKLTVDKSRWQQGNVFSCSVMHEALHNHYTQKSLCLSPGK
light: DIVMTQSPDSLAVSLGERATISCKASQSVDYSGDSYMNWYQQKPGQPPKLLIYAASDLESGIPARFSGSGSGTDFTLTISSLEPEDFATYYCQQSHEDPFTFGQGTKLEIKRTVAAPSVFIFPPSDEQLKSGTASVVCLLNNFYPREAKVQWKVDNALQSGNSQESVTEQDSKDSTYSLSSTLTLSKADYEKHKVYACEVTHQGLSSPVTKSFNRGEC
notes: IgG1 kappa with engineered Cys S442C (EU index); also called hMAB-A (2I.2)(C)

EC50 (read off the curve) [6]: ~9 ng/mL
B4: hMAB-A (2I.2)(AA/C) (antibody)
heavy: EVQLVESGGGLVKPGGSLRLSCAASGFTFSSYWMHWVRQAPGKGLEWVGEIIPIFGHTNYNEKFKSRFTISLDNSKNTLYLQMGSLRAEDTAVYYCARGGYYYYPRQGFLDYWGQGTTVTVSSASTKGPSVFPLAPSSKSTSGGTAALGCLVKDYFPEPVTVSWNSGALTSGVHTFPAVLQSSGLYSLSSVVTVPSSSLGTQTYICNVNHKPSNTKVDKRVEPKSCDKTHTCPPCPAPEAAGGPSVFLFPPKPKDTLMISRTPEVTCVVVDVSHEDPEVKFNWYVDGVEVHNAKTKPREEQYNSTYRVVSVLTVLHQDWLNGKEYKCKVSNKALPAPIEKTISKAKGQPREPQVYTLPPSREEMTKNQVSLTCLVKGFYPSDIAVEWESNGQPENNYKTTPPVLDSDGSFFLYSKLTVDKSRWQQGNVFSCSVMHEALHNHYTQKSLCLSPGK
light: B3 light
notes: Last residue X is lysine or absent; also called L234A/L235A/S442C Fc variant of hMAB-A (2I.2)

The next lines start with the binder.

B1: hMAB-A (2I.2) (antibody, human IgG1, kappa)
heavy: not shown
light: B3 light
notes: Kappa light chain, wild-type IgG1 heavy chain constant regions; also called MAB-A VH(2I); MAB-A VH(2I.2)
EC50 [1]: 1.49 nM | EC50 [2]: 4.1 nM | Kd [3]: 0.4 nM | koff [3]: 0.00023 s⁻¹ | kon [3]: 660000 M⁻¹ s⁻¹ | cyno/human (ratio of EC50) [4]: 3 | Kd (huFcRn [5]): 3400 nM | EC50 (read off the curve) [6]: ~9 ng/mL

B2: hMAB-A(2I.2)-YTE (antibody, human IgG1, kappa)
heavy: B4 heavy with A240L, A241L, M258Y, S260T, T262E, C448S
light: B3 light
notes: Last residue X is lysine or absent; also called hMAB-A(2I.2) with the YTE mutation (M252Y, S254T, T256E)
binding result (cyno FcRn): binds | Kd (huFcRn [5]): 730 nM | Kd (huFcRn [7]): 7.2 nM

B5: hMAB-A (2.2) (antibody, human IgG1, kappa, V domains shown)
VH: EVQLVESGGGLVKPGGSLRLSCAASGFTFSSYWMHWVRQAPGKGLEWVGEIIPIFGHTNYNEKFKSRFTISLDNSKNTLYLQMGSLRAEDTAVYYCARGGYYYYGSRDYFDYWGQGTTVTVSS
VL: DIVMTQSPDSLAVSLGERATISCKASQSVDYSGDSYMNWYQQKPGQPPKLLIYAASDLESGIPARFSGSGSGTDFTLTISSLEPEDFATYYCQQSHEDPFTFGQGTKLEIKR
notes: IgG1 kappa; also called huMAB-A(2.2); parental hMAB-A (2.2)
EC50 [1]: 0.69 nM | Kd [3]: 0.6 nM | koff [3]: 0.00055 s⁻¹ | kon [3]: 900000 M⁻¹ s⁻¹ | Kd [8]: 1.4 nM | EC50 [9]: 32.7 nM | cyno/human (ratio of EC50) [10]: 47
